# Assay results reported in patent US20200199241A1 (Chugai, published 2020).
# Where a chain is given by its changes, count along the chain named. Names may count otherwise.
# B1: IgG1-F400 (antibody)
# heavy: QVQLQESGPGLVKPSETLSLTCAVSGHSISHDHAWSWVRQPPGEGLEWIGFISYSGITNYNPSLQGRVTISRDNSKNTLYLQMNSLRAEDTAVYYCARSLARTTAMDYWGEGTLVTVSSASTKGPSVFPLAPSSKSTSGGTAALGCLVKDYFPEPVTVSWNSGALTSGVHTFPAVLQSSGLYSLSSVVTVPSSSLGTQTYICNVNHKPSNTKVDKKVEPKSCDKTHTCPPCPAPELLGGPKVFLFPPKPKDTLYISRTPEVTCVVVDVSHEFPEVKFNWYVDGVEVHEAKTKPREEQYNSTYRVVSVLTPLHADWLNGKEYKCKVSNKALPAPIEKTISKAKGQPREPQVYTLPPSRDELTKNQVSLTCLVKGFYPSDIAVEWESNGQPENNYKTTPPVLDSDGSFFLYSKLTVDKSRWQQGNVFSCSVIHEALHYHYTQKSLSLSP
# light: not shown
# notes: EU numbering; copies: 2 + 2
# B2: IgG1-F464 (antibody)
# heavy: B1 heavy with K241S, Y254M, P259A, F272D, E288N, T309Q, A313Q, I430L
# light: not shown
# notes: EU numbering; copies: 2 + 2
# B3: IgG1-F424 (antibody)
# heavy: B1 heavy with Y254M, P259A, F272D, E288N, A313Q, I430L
# light: not shown
# notes: copies: 2 + 2
# B4: IgG1-F440 (antibody)
# heavy: B1 heavy with K241S, Y254M, P259V, F272D, T309Q, P310V, N327G, I430L
# light: not shown
# notes: EU numbering; copies: 2 + 2
# B5: IgG1-F420 (antibody)
# heavy: B1 heavy with K241S, F272D, E288N, T309A, P310V, A313H, P389E, I430M
# light: not shown
# notes: EU numbering; copies: 2 + 2
# B6: IgG1-F439 (antibody)
# heavy: B1 heavy with K241S, Y254M, P259A, F272D, E288N, T309Q, P310V, A313Q, I430F
# light: not shown
# notes: EU numbering; copies: 2 + 2
# B7: IgG1-F402 (antibody)
# heavy: B1 heavy with K241S, Y254M, P259V, F272D, E288N, T309Q, P310V, A313Q, I430L, Y436W
# light: not shown
# notes: EU numbering; copies: 2 + 2
# B8: IgG1-F404 (antibody)
# heavy: B1 heavy with K241S, Y254M, P259A, F272D, E288N, T309Q, P310V, L311P, A313Q, I430L
# light: not shown
# notes: EU numbering; 'M928L' read as M428L; copies: 2 + 2
# B9: IgG1-F429 (antibody)
# heavy: B1 heavy with K241S, P259V, F272D, E288N, T309Q, P310V, A313Q, I430M
# light: not shown
# notes: EU numbering; copies: 2 + 2
# B10: IgG1-F452 (antibody)
# heavy: B1 heavy with K241S, Y254M, P259M, F272D, E288N, T309A, P310V, A313Q, I430L
# light: not shown
# notes: EU numbering; copies: 2 + 2
# B11: IgG1-F458 (antibody)
# heavy: B1 heavy with K241S, Y254M, P259V, F272D, E288N, T309Q, A313Q, N327G, I430L
# light: not shown
# notes: EU numbering; copies: 2 + 2
# B12: IgG1-F446 (antibody)
# heavy: B1 heavy with K241S, Y254M, P259A, F272D, E288N, T309A, P310V, A313H, I430L
# light: not shown
# notes: EU numbering; copies: 2 + 2
# B13: IgG1-F423 (antibody)
# heavy: B1 heavy with K241S, F272D, E288N, T309W, P310V, A313H, I430M
# light: not shown
# notes: EU numbering; copies: 2 + 2
# B14: IgG1-F444 (antibody)
# heavy: B1 heavy with K241S, Y254M, P259A, F272D, E288N, T309A, P310V, I430L
# light: not shown
# notes: EU numbering; copies: 2 + 2
# B15: IgG1-F432 (antibody)
# heavy: B1 heavy with K241S, Y254M, P259V, F272D, E288N, T309Q, P310V, N327G, I430V
# light: not shown
# notes: EU numbering; copies: 2 + 2
# B16: IgG1-F449 (antibody)
# heavy: B1 heavy with E288N, T309P, P310V, A313Q, N327G, I430Y
# light: not shown
# notes: EU numbering; copies: 2 + 2
# B17: IgG1-F467 (antibody)
# heavy: B1 heavy with K241S, Y254M, T258E, P259T, F272D, E288N, P310V, A313Q, I430M
# light: not shown
# notes: EU numbering; copies: 2 + 2
# B18: IgG1-F436 (antibody)
# heavy: B1 heavy with K241S, Y254M, P259A, F272D, E288N, T309Q, P310V, A313Q, I430V
# light: not shown
# notes: EU numbering; copies: 2 + 2
# B19: IgG1-F428 (antibody)
# heavy: B1 heavy with K241S, P259V, F272D, E288N, T309Q, P310V, A313Q, I430L
# light: not shown
# notes: EU numbering; copies: 2 + 2
# B20: IgG1-F454 (antibody)
# heavy: B1 heavy with K241S, Y254M, P259I, F272D, E288N, T309A, P310V, A313Q, I430L
# light: not shown
# notes: EU numbering; copies: 2 + 2
# B21: IgG1-F448 (antibody)
# heavy: B1 heavy with K241S, Y254M, P259A, F272D, T309A, P310V, A313Q, I430L
# light: not shown
# notes: EU numbering; copies: 2 + 2
# B22: IgG1-F410 (antibody)
# heavy: B1 heavy with K241S, Y254M, P259V, F272D, E288N, T309H, P310V, A313Q, I430L
# light: not shown
# notes: EU numbering; copies: 2 + 2
# B23: IgG1-F431 (antibody)
# heavy: B1 heavy with K241S, P259V, F272D, E288N, T309Q, P310V, A313Q, I430F
# light: not shown
# notes: EU numbering; copies: 2 + 2
# B24: IgG1-F468 (antibody)
# heavy: B1 heavy with Y254M, P259T, F272D, E288N, A313Q, I430L
# light: not shown
# notes: EU numbering; copies: 2 + 2
# B25: IgG1-F430 (antibody)
# heavy: B1 heavy with K241S, P259V, F272D, E288N, T309Q, P310V, A313Q, I430Y
# light: not shown
# notes: EU numbering; copies: 2 + 2
# B26: IgG1-F425 (antibody)
# heavy: B1 heavy with K241S, Y254M, P259A, F272D, E288N, L311E, A313Q, I430L
# light: not shown
# notes: EU numbering; copies: 2 + 2
# B27: IgG1-F435 (antibody)
# heavy: B1 heavy with K241S, Y254M, P259V, F272D, E288N, T309Q, P310V, N327G, I430F
# light: not shown
# notes: EU numbering; copies: 2 + 2
# B28: IgG1-F416 (antibody)
# heavy: B1 heavy with K241S, Y254M, P259V, F272D, E288N, T309A, P310V, A313Q, P389E, I430L
# light: not shown
# notes: EU numbering; copies: 2 + 2
# B29: IgG1-F427 (antibody)
# heavy: B1 heavy with K241S, P259V, F272D, E288N, T309Q, P310V, A313Q, I430V
# light: not shown
# notes: EU numbering; copies: 2 + 2
# B30: IgG1-F453 (antibody)
# heavy: B1 heavy with K241S, Y254M, P259N, F272D, E288N, T309A, P310V, A313Q, I430L
# light: not shown
# notes: EU numbering; copies: 2 + 2
# Target: T1, human FcRn (soluble human FcRn complexed with β2-microglobulin) (human, UniProt P61769 21-119, limits assumed)
# T1 construct: also called hFcRn
# Assay: SPR, pH 7.0;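 further: antibodies captured on a Protein L sensor chip with human FcRn injected as analyte, KD calculated from fitted association and dissociation rate constants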
row,Kd [nM],Binder
1,6.1,B1
2,55,B2
3,94,B3
4,15,B4
5,150,B5
6,40,B6
7,23,B7
8,94,B8
9,37,B9
10,140,B10
11,15,B11
12,110,B12
13,84,B13
14,140,B14
15,920,B15
16,570,B16
17,570,B17
18,250,B18
19,80,B19
20,96,B20
21,53,B21
22,220,B22
23,65,B23
24,57,B24
25,81,B25
26,80,B26
27,25,B27
28,94,B28
29,110,B29
30,78,B30
